{"source": "the supplement of paper PMC10724198", "note": "± gives the standard deviation of the averaged measurements.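 Further: PSI is a weighted mean of sequencing reads over stability bins, variants kept only with over 10 reads, mCherry proximal and sfGFP distal, peptide attached via GGGS linker.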", "data": [{"test_system": "Saccharomyces cerevisiae", "assay": "protein stability index of tFT-peptide fusion (C-terminal peptide) (PSI (0-1 scale)); higher = more stable (slower turnover)", "settings": "genetic background: wild type; temperature: 30 C", "values": [{"sequence": "DGPSPAASPPRF", "protein stability index": "0.757 ± 0.095"}, {"sequence": "GNLTPHSERLPP", "protein stability index": "0.658 ± 0.0084"}, {"sequence": "RLFLSFVDRRSL", "protein stability index": "0.629 ± 0.06"}, {"sequence": "GLRSVQISHIRQ", "protein stability index": "0.694 ± 0.012"}, {"sequence": "SGCIYLLQTPME", "protein stability index": "0.636 ± 0.012"}, {"sequence": "SPPCPPPHPHPP", "protein stability index": "0.597 ± 0.012"}, {"sequence": "FLLSVVQGAVHQ", "protein stability index": "0.6 ± 0.036"}, {"sequence": "GTALLSGGVLVI", "protein stability index": "0.689 ± 0.11"}, {"sequence": "QDECPRTTQGRV", "protein stability index": "0.656 ± 0.04"}, {"sequence": "LVVSHDSSLMMR", "protein stability index": "0.7363 ± 0.0045"}, {"sequence": "LSHPPPPPSSAT", "protein stability index": "0.716 ± 0.027"}, {"sequence": "RKNNTVIKQIKR", "protein stability index": "0.656 ± 0.054"}, {"sequence": "TPVLATAPQGQS", "protein stability index": "0.71 ± 0.063"}, {"sequence": "EPPRSPRSLPPL", "protein stability index": "0.661 ± 0.0073"}, {"sequence": "GVRGVSHMDGGD", "protein stability index": "0.758 ± 0.16"}, {"sequence": "NGPDAKTIEVRQ", "protein stability index": "0.658 ± 0.048"}, {"sequence": "AGCRRGLGMETQ", "protein stability index": "0.648 ± 0.012"}, {"sequence": "PYQQVAESETKK", "protein stability index": "0.717 ± 0.089"}, {"sequence": "YGTLCPLNGCGI", "protein stability index": "0.633 ± 0.068"}, {"sequence": "SVPHRLLSVPPV", "protein stability index": "0.6816 ± 0.0014"}, {"sequence": "LYPLTPWYVVPP", "protein stability index": "0.715 ± 0.11"}, {"sequence": "LYSFSIPPSLGS", "protein stability index": "0.735 ± 0.085"}, {"sequence": "PPPPPRPPPARL", "protein stability index": "0.672 ± 0.06"}, {"sequence": "FPPPLPLLSPLP", "protein stability index": "0.671 ± 0.079"}, {"sequence": "PIPPPPPPPHSP", "protein stability index": "0.779 ± 0.043"}, {"sequence": "LGGICPLYDLVF", "protein stability index": "0.667 ± 0.076"}, {"sequence": "SFVECVDVMGRW", "protein stability index": "0.757 ± 0.056"}, {"sequence": "IPLCRVAGPKLK", "protein stability index": "0.591 ± 0.048"}, {"sequence": "TVLPAPYRSLYR", "protein stability index": "0.714 ± 0.1"}, {"sequence": "RYTQQTTATYHN", "protein stability index": "0.749 ± 0.079"}, {"sequence": "VGRGGVRRLLQT", "protein stability index": "0.709 ± 0.037"}, {"sequence": "RDFCLGFANTVC", "protein stability index": "0.642 ± 0.028"}, {"sequence": "GVTGGGVVNRGV", "protein stability index": "0.689 ± 0.088"}, {"sequence": "PGTGGHKRASPV", "protein stability index": "0.6293 ± 0.0016"}, {"sequence": "SLTENRGRKKKK", "protein stability index": "0.664 ± 0.0082"}, {"sequence": "PSIHCLSATQTW", "protein stability index": "0.672 ± 0.068"}, {"sequence": "PHPPLPLSPPPP", "protein stability index": "0.72 ± 0.0084"}, {"sequence": "PPIVHPGSLRSA", "protein stability index": "0.673 ± 0.024"}, {"sequence": "PPPARSPLPLPP", "protein stability index": "0.742 ± 0.018"}, {"sequence": "PRSAPPVPPIYP", "protein stability index": "0.6502 ± 0.0053"}, {"sequence": "LSAPLPPLSAPP", "protein stability index": "0.667 ± 0.0099"}, {"sequence": "FPRRLLPLSPPP", "protein stability index": "0.704 ± 0.015"}, {"sequence": "QDRATRPSHRTQ", "protein stability index": "0.684 ± 0.03"}, {"sequence": "PPLPPPRPLSPC", "protein stability index": "0.713 ± 0.094"}, {"sequence": "SRVKMKGTIRER", "protein stability index": "0.701 ± 0.021"}, {"sequence": "GSQCPVLEQQRD", "protein stability index": "0.655 ± 0.018"}, {"sequence": "ETVIQRFLSGHI", "protein stability index": "0.699 ± 0.017"}, {"sequence": "VRGKGWRVGWWG", "protein stability index": "0.668 ± 0.045"}, {"sequence": "CRRRWSAPGGSR", "protein stability index": "0.7176 ± 0.0047"}, {"sequence": "VPYGKILQQGDI", "protein stability index": "0.658 ± 0.048"}, {"sequence": "VITYKKKNTRKQ", "protein stability index": "0.673 ± 0.093"}, {"sequence": "CLATVFWHHVKF", "protein stability index": "0.63 ± 0.058"}, {"sequence": "ARATPLWDLMPP", "protein stability index": "0.615 ± 0.094"}, {"sequence": "KKKKKKNSEKMK", "protein stability index": "0.704 ± 0.062"}, {"sequence": "GSLWGVFFRGLL", "protein stability index": "0.647 ± 0.037"}, {"sequence": "LFALLSGIDRCL", "protein stability index": "0.634 ± 0.012"}, {"sequence": "VGQCVWRVGRSS", "protein stability index": "0.69 ± 0.044"}, {"sequence": "GTVEGAVQGLVE", "protein stability index": "0.718 ± 0.045"}, {"sequence": "CLLIRAQRNALW", "protein stability index": "0.64 ± 0.036"}, {"sequence": "VYEIQCGSNFKG", "protein stability index": "0.7 ± 0.052"}, {"sequence": "LTRKTPQKRAPQ", "protein stability index": "0.704 ± 0.013"}, {"sequence": "DSGTIWFPTHFV", "protein stability index": "0.7151 ± 0.0044"}, {"sequence": "PERPDPPVNDRN", "protein stability index": "0.62 ± 0.029"}, {"sequence": "SPFPAWPIPASV", "protein stability index": "0.612 ± 0.036"}, {"sequence": "FLGEKTCRSIIS", "protein stability index": "0.646 ± 0.083"}, {"sequence": "IRILDARYLSIS", "protein stability index": "0.62 ± 0.12"}, {"sequence": "VRNESGGRAAAS", "protein stability index": "0.6988 ± 0.0016"}, {"sequence": "RWLWRLDNRIVI", "protein stability index": "0.62081 ± 4.7e-05"}, {"sequence": "TWQWGAFNRIKG", "protein stability index": "0.68 ± 0.13"}, {"sequence": "QPYTPHTAFPAQ", "protein stability index": "0.696 ± 0.011"}, {"sequence": "GNNLCILNERFP", "protein stability index": "0.763 ± 0.019"}, {"sequence": "LSAQNNTGIVKT", "protein stability index": "0.623 ± 0.0084"}, {"sequence": "VRSCCFFLDAVW", "protein stability index": "0.665 ± 0.029"}, {"sequence": "FGVGSITDEELD", "protein stability index": "0.735 ± 0.036"}, {"sequence": "AWFCLGGRRGMV", "protein stability index": "0.685 ± 0.023"}, {"sequence": "CGRACWTGEDDV", "protein stability index": "0.68 ± 0.037"}, {"sequence": "DCWAGWGLCGWG", "protein stability index": "0.748 ± 0.044"}, {"sequence": "SPPCRTYFAECD", "protein stability index": "0.713 ± 0.053"}, {"sequence": "PPPPPPLPPLSP", "protein stability index": "0.717 ± 0.035"}, {"sequence": "GMRRGGGGCRGW", "protein stability index": "0.716 ± 0.033"}, {"sequence": "CVTGPIDKLRLL", "protein stability index": "0.5947 ± 0.0023"}, {"sequence": "AQTPNPEPLENN", "protein stability index": "0.699 ± 0.033"}, {"sequence": "PPSPPLRPPSLC", "protein stability index": "0.704 ± 0.024"}, {"sequence": "PPRQPACAFLPS", "protein stability index": "0.653 ± 0.09"}, {"sequence": "RLVGCWGRVKFE", "protein stability index": "0.6927 ± 0.003"}, {"sequence": "LGGLKCGRLADS", "protein stability index": "0.656 ± 0.041"}, {"sequence": "TIKSATLVSFST", "protein stability index": "0.671 ± 0.072"}, {"sequence": "SFFLSFFSPLVL", "protein stability index": "0.63 ± 0.038"}, {"sequence": "PRFKPSRSTPAD", "protein stability index": "0.675 ± 0.031"}, {"sequence": "QGKRQEEGERER", "protein stability index": "0.68 ± 0.052"}, {"sequence": "PLPCSPRLRLSF", "protein stability index": "0.646 ± 0.036"}, {"sequence": "PPRPSTPPRHSL", "protein stability index": "0.695 ± 0.058"}, {"sequence": "FPPPPPVPPPLS", "protein stability index": "0.723 ± 0.047"}, {"sequence": "NSSLSLPFGPPP", "protein stability index": "0.69 ± 0.011"}, {"sequence": "DFSPPSPLPLPL", "protein stability index": "0.721 ± 0.01"}, {"sequence": "VSGGRQGGWGGW", "protein stability index": "0.691 ± 0.034"}, {"sequence": "GGWWWAVGFGGL", "protein stability index": "0.66 ± 0.017"}, {"sequence": "PPALRPSPPLSP", "protein stability index": "0.698 ± 0.065"}, {"sequence": "RGRLRGPEPKMT", "protein stability index": "0.726 ± 0.078"}, {"sequence": "IKKANRKTKPMK", "protein stability index": "0.712 ± 0.078"}, {"sequence": "IAAVQSGGRVAG", "protein stability index": "0.462 ± 0.057"}]}]}
